Measurements taken from publication PMC7047619 (Arteriosclerosis, thrombosis, and vascular biology, 2020).

Target: wild-type αIIbβ3 on HEK 293 cells (Homo sapiens, UniProt P08514;P05106)
Experiment: flow cytometry on cells

Row | Binder | binding result
1 | murine mAb 7E3 (antibody, V domains shown) VH: EVQLQQSGTVLARPGASVKMSCEASGYTFTNYWMHWVKQRPGQGLEWIGAIYPGNSDTSYIQKFKGKAKLTAVTSTTSVYMELSSLTNEDSAVYYCTLYDGYYVFAYWGQGTLVTVSA VL: EIVLTQSPVTLSVTPGDSVSLSCRASRDISNNLHWFQQTSHESPRLLIKYASQSMSGIPSRFSGSGSGTDFTLSINSVETEDFGMYFCQQTNSWPYTFGGGTKLEIK | binds
2 | abciximab (Fab, V domains shown) VH: EVQLQQSGTVLARPGASVKMSCEASGYTFTNYWMHWVKQRPGQGLEWIGAIYPGNSDTSYIQKFKGKAKLTAVTSTTSVYMELSSLTNEDSAVYYCTLYDGYYVFAYWGQGTLVTVSA VL: EIVLTQSPVTLSVTPGDSVSLSCRASRDISNNLHWFQQTSHESPRLLIKYASQSMSGIPSRFSGSGSGTDFTLSINSVETEDFGMYFCQQTNSWPYTFGGGTKLEIK | binds
